Test results published in publication PMC8764033, “Single-molecule analysis of specificity and multivalency in binding of short linear substrate motifs to the APC/C” (Nature Communications, 2022).
Values joined by “and” are separate entries in the source; they are usually repeats but may differ in a detail not shown here. Identical values can stand only once.

Experiments:
[1] = target: T1, Cdh1^WD40 (Saccharomyces cerevisiae, UniProt P53197); test: SMOR assay (single-molecule off-rate, TIRF), yeast Cdh1^WD40; format: binding; conditions: for mean dwell time: representative of two independent experiments, ± SE, ligand ≤1 nM, buffer C + BSA
T1 construct: the WD40 domains of yeast Cdh1 (aa 241–550; pNH144); made in house; host or cells: Sf9 insect cells (baculovirus)
T1 sequence (P53197 241-550): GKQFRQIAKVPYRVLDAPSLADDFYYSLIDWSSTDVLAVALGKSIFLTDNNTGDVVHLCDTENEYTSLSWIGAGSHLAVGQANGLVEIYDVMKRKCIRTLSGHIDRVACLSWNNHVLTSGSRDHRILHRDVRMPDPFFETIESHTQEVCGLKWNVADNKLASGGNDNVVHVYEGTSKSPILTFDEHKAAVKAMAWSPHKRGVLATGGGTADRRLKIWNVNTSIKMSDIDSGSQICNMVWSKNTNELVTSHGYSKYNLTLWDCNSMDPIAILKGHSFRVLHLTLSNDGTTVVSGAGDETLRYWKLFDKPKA
Method: Activators were cloned into the pFastBac HT A vector, with an N-terminal 2xStrep-Tag II. For some experiments, we constructed vectors for expression of the WD40 domains of yeast Cdh1 (aa 241–550; pNH144), human Cdh1 (aa 165–484; pNH164), or human Cdc20 (aa 162–484; pNH188). For SMOR, a C-terminal GFP tag was added. Bacmid plasmids are listed in Supplementary Table 3. Plasmids were transformed into DH10Bac cells, and purified Bacmid was used to transfect Sf9 cells to generate P1 baculovirus, which was used to generate P2 virus. SF9 cells were infected with the P2 virus for 48 h. Flash-frozen pellets were lysed by sonication or high-pressure homogenization in lysis buffer B (50 mM Tris-HCl pH 8, 150 mM KCl, 0.5 mM EDTA, 1 mM DTT, 10% Glycerol, EDTA-free protease inhibitor tablet, 1 µg ml^−1 pepstatin A). After the lysate was applied to the StrepTrap column, the column was washed with wash buffer B (lysis buffer B lacking protease inhibitors) and eluted in the same buffer containing 2.5 mM desthiobiotin.
For all SMOR experiments, 24 × 50 mm high precision glass coverslips (Bioscience Tools) and drilled microscope slides were passivated with a combination of PEG and PEG-biotin (coverslips) or PEG only (slides) following a previously published protocol for SiMPull[31]. Reaction chambers (~20 µl) were created using double-sided tape and epoxy. Protein was immobilized on the surface with 0.2 mg ml^−1 NeutrAvidin in buffer C (20 mM HEPES pH 7.5, 150 mM KCl, 10% glycerol, 0.05% Tween-20, 1 mM DTT). Excess NeutrAvidin was washed away and incubated with either biotin-conjugated mouse monoclonal anti-Strep-Tag II antibody (LSBio, Cat. No. LS-C203632-100) or biotin-conjugated rabbit polyclonal anti-GFP antibody (Rockland, Cat. No. 600-406-215) diluted in buffer C + BSA (0.1 mg ml^−1; Molecular Biology Grade Bovine Serum Albumin). Activator WD40 and activated APC/C (typically 50 µl containing about 65 ng APC/C, of which only a small fraction is immobilized on the glass) were immobilized using anti-Strep-Tag II, while APC/C alone was immobilized with anti-GFP. SMOR results were similar when performed in the buffer (wash buffer B) used in polarization anisotropy.
To capture dynamic protein–protein interactions, dye-labeled substrate diluted in buffer C + BSA was added to the chamber containing immobilized proteins. Interactions were imaged by TIRF microscopy as described below. For optimal signal-to-noise ratio, peptide concentration was no greater than 1 nM. Protein substrates included Hsl1 aa 667–872 and a C-terminal HaloTag followed by a TAP tag, and were produced by translation in rabbit reticulocyte lysates using TnT Quick Coupled Transcription/Translation System (Promega) (see Supplementary Table 5 for plasmids). Protein was purified with magnetic IgG beads and labeled on the bead with JF549 or JF646 dye so that unbound dye could be washed away. Purified dye-labeled protein was then cleaved from the beads using TEV protease. Before adding substrate to the reaction chamber, oxygen scavenging reagents were added (10 nM protocatechuate-3,4-dioxygenase, 2.5 mM protocatechuic acid, and 1 mM Trolox)[41]. A detailed description of the SMOR analysis pipeline is found in Supplementary Note 1.
Microscopy was performed with a Nikon Eclipse TE2000-E with Perfect Focus with a 100 × 1.49na oil, Apo TIRF DIC N2, 0.13-0.2, WD0.12 objective. Movies were recorded using the Andor iXon DU-897E-CSO. […]

[2] = test system: APC/C; test: APC/C ubiquitylation assay; format: biochemical, yeast; conditions: listed as Hsl1^Halo
Method: APC/C ubiquitylation assays were performed as described previously. In short, APC/C was purified from yeast as described above using magnetic IgG beads and activated with a purified Cdh1 or Cdc20 activator. For all APC/C ubiquitylation assays, substrates were produced by in vitro translation with ^35S-Methionine (see Supplementary Table 5 for plasmids). Substrates were purified using magnetic IgG beads. E1 and E2 (Ubc4) were expressed in E. coli and purified as described previously[25],[42]. E2 was charged at 37 °C for 30 min (reaction contained 0.2 mg ml^−1 Uba1, 2 mg ml^−1 Ubc4, 2 mg ml^−1 methylated ubiquitin from Boston Biochem #Y-501, and 1 mM ATP). Charged E2 was added to a reaction containing activated APC/C and substrate. Reaction products were analyzed by SDS-PAGE and Phosphorimaging on a Typhoon 9400 Imager. […]

B1: Hsl1^Halo KEN & D: Hsl1 fragment (amino acids 667–872) with C-terminal HaloTag, JF549-labeled (protein)
chain: QNSASKRSLYSLQSISKRSLNLNDLLVFDDPLPSKKPASENVNKSEPHSLESDSDFEILCDQILFGNALDRILEEEEDNEKERDTQRQRQNDTKSSADTFTISGVSTNKENEGPEYPTKIEKNQFNMSYKPSENMSGLSSFPIFEKENTLSSSYLEEQKPKRAALSDITNSFNKMNKQEGMRIEKKIQREQLQKKNDRPSPLKPIQ
modifications: JF549 or JF646 dye covalently bound to the HaloTag; left off: HaloTag, C-terminal, kept | TAP, C-terminal, cleaved
notes: Hsl1 fragment (amino acids 667–872) with C-terminal HaloTag, JF549-labeled
With B1 the “Dwell Time” value ([1]; Supplementary Table 1, replicate 1 (movie listed first)) was 73.520 ± 3.075 s, the “Dwell Time” value ([1]; Supplementary Table 1, replicate 2 (movie listed second)) was 56.447 ± 2.072 s and the mean dwell time [1] was 56.4 ± 2 s and 56.4 s. For the same molecule, the mean dwell time ([1]; listed as Hsl1 fragment) was 56.4 ± 2 s, the “fold increase in dwell time vs degron peptide alone” value ([1]; vs D (and KEN) box peptide) was 100 fold and the “ubiquitylation (in words)” value [2] was “HaloTag does not affect ubiquitylation or binding”.
